Experiment: label from the status in PepcDB records
In the case of “MYLKRSDGPSPGTLSLAARLTVLSTLATTGVLLFAIVFQFLALVSDLEFEDNDFIIDKIRVIEAIIVRYPEDRVHLEQEVQWEGSMREDSRYLVRIADARKNIIMETRGMDRIAPPAMFPRPARDTHAIGRGKKLKTPEGRVYLVNAAWTDGGRAPDSRQIQVALDVTEEEEMLEGYKQKMAFVFLAGLFLSAGLNVVVVRRGLRPLVQLTETAGRIDVTTLHERIDARVWPRELARFAAAFDAMLTRLESSFERLESSSANLAHEIRTPLNILRGEAEVTLSRARSPEEYRRVIESSLEEYERLSRLIDNILFLARAEQRIEPVPLDAGHELELLQDYYGTLAEEKGIAISCTGEGTISADPLLFQRAVGNVLSNAIRYTPAGGTITVSIDRADDGAALLTVIDTGIGISADDLPRVFDRFYRSSEARTLNAQGTGLGLAIVRSIMELHRGSVTIDSAPGRGTAVTLRFPLASQ”, the protein production is reported as “failed”. With “MYLRRFYDEGLAHASYLVGCQETGEACVIDPARDVEPYLLTAKREGLRIVAALETHIHADFVSGAREMADRAGAAICVSDEGPPEWKSEYVKAYPHRLLKDGDELHFGNVRIVVMHTPGHTPEHVSYLLYDGKTSPDVPMALFSGDFVFVGDVGRPDLLERVAGESGSSEALARQMFRSLRKFEALPDHVQVLPAHGAGSACGKALGAVPSSTVGYEKLVNWALQHKDEDAFVQALLAGQPEAPIYFARMKLVNKVGPRLLAELGAPERVDLPPERVRAWREGGVVLDVRPADAFAKRHLAGSLNIPWNKSFVTWAGWLLPADRPIHLLAADAIAPDVIRALRSIGIDDVVDWTDPAAVDRAAPDDVASYANVSPDEVRGALAQQGLWLLDVRNVDEWAGGHLPQAHHIPLSKLAAHIHDVPRDGSVCVYCRTGGRSAIAASLLRAHGVGDVRNMVGGYEAWRGKGFPVEA” the protein production was “not failed”. For “MYNREGIQGHILSFIDFSKASTFLDIGCGKGNDLIEISNRTCKEAKLYGVDVKANLIEFAKMQTEGDCRFTFNVYDVEDGLKFEDESIDVIISCNVLECIKNKSKLLHEIHRVLKPDGKIIMAHFDWDTQIFNAFDKNLYRKLIHTYSDWQQPWMNDCDAWMGRRISGVFNETGLFSGNIFTYVVTESEYKEGFRGYSLINEEFKALVEKGIIKNTEFELFKDQIIQLEKTGHYFYSVNLYTYVGQKK”, the protein production was “failed”. In the case of “MYRDIATKLVAAIQDGIFTVKLPTEAQLMERYQASRNTIRKAIDLVYQQGLLRRVQGSGYYITNIQLQHKTVVNLSARSLFNSHVHPRTLTSKILTFDTIHGDSALSRKLNIPVDEELYRIIRLRYWHDQLYCLEKAYYLRSVVPYLSTEAVNTSIWDFINEAYGIGIANSDDYLSLTNLNKEEAELMNLAQGATHLALDSCNYYKNNGLLDFSHTIFVYPDLALYFHTTNLANN”, the protein production is reported as “failed”. For “MYREFYGLTEKPFSKTPDPRYLFLSRGHREALARLQYAVEERELALLTGDIGCGKTTISRALMDAVGNDGCFCFIVNPRLSAVEFLRTVARSLGIAEPAAAKDELLRQLTEAVYRLEGEKRCPVIIIDEAQLIPDQEVFDEIRLLTNFQLDDRNLMSVILMGQPELRQILSEPAHEALRQRIAMHYHLQPLSLEETLEYVDFRVEVAGGPQGLFSPDAIRRIYELSGGVPRKINILATNALLVGFGKDSAWIDASLVEELRDEASLYLEHHHHHH”, the protein production was “failed”. In the case of “MYSALLNADIRIYGYLRASTDEQDASRAKNELMLFAEQMGFQVACWFEENESGAQLKRPELFRLLDIAISGDVILVEQVDRISRLNTQDWEKLKLMINKKGLKVVSLDLPTSYQFMSNTDDFTERMLSALNGMMLDMLAAVARKDYEDRRRRQAQGVQRAKLEGKYKGRPINTKLHNKIEGLLRENKSYSQIENLLGCSRHTISKVSKLIKSSIG”, the protein production is reported as “failed”. In the case of “MYSKIEGSIITARFDKETDFFTDLVDLCNKYEVKSGTVLWAIGMLKEFQIGYWNGNDYEKETFRERLELVSLHGSIAENDPRFHIHAAGARGNHGIVGGHLFSAKVDPLVEIQIMKITGFSMSRELDNSDGLYKLVIKLEHHHHHH”, the protein production is reported as “failed”. For “MYSNSKCNKFLMYFIFIIFLFCSCQTFYPKNSPEFSFIENSGKNFVWEKLTEGIFLSHIKYEDYPLIIHAVKIDLTNPKLKIVVTEPALFNSKGMVKRETTLSFARRHNTVIALNAAFFNVISFSFSLRGEPLGIHIDKKINLSKPFPKYGALCFLDDNSAFIIESQNTEDIKADIEYAVSGNRIILKNGKPIITNISKKENSRTCVGLADGGKTLYLFFAEGENKKKSRGITYDQAHFFMKKLGAQDAIHLDGGGSSSLIIKKENSFFVQVPSISHFGLRKVVTNLGFIIED”, the protein production was “failed”. For “MYSPFEILYLAIIIDSLSYTIGALLYGSPIPVRGFKEMGHKMIVNSIYVAVLANIFGLILSILSQLQNIVGANWSTFYLDIGLLQIQTGVAINMGKFLYGIIALILYYFKVPSQFYSLVTPLLQYISFLTDILILLNFYMDLGIFIQSSYMVLIAIGILLMALPFQMGKGIGAMLISFTIVFYVGLPLLPILISNSSPLQNQNFVLQDISLQTEEFYAQIPALFYSFILIPLTYVGVLVGFSVVLQSFIGGYVGRLPIPVEI”, the protein production was “failed”. With “MYSYADRIRAVALYIKLGLRVRATIRQLGYPTKNALKGWYQHYLKHQDLPASQAPRAPKYSLQQRQVAIAHYLAHDRCIAATMRALGYPGRGTLTAWVRQDCPDTCKSRVGRSWPATKPDALMCEGVVQLCARRSSAQQIADKLGVCRGTLYNWKNQLLGPCAPASMKHSPKRSPVLDEAALRRQVESLRQDVRRLKIERELLKQAHEILKNGADIDLHRLANKDKAVLVEALHGQYELPELLSLVGLARSSYFYHRARLKLADKYVDLRRSITEIFDNNYRCYGYRRVQASLLKECTGISEKVVRRLMKQEGLIVAKPKRRRYNSYLGEIGAAPQNLINRDFRAAAPNEKWLTDITELQIPAGKVYLSPVIDCFDGLVVSWSIGTHPNAHLVNTMLDAAIDAVQGSESRPVIHSDRGAHYRWPGWLSRVHDAKLTRSMSRKGCSPDNAACEGFFGRLKMELFYPNNWQSTTIEQFIEAVDAYIRWYNEKRIKVSLGRLSPVEYRHKLGLAA” the protein production was “failed”. In the case of “MYSYADRLRAVELYIRLGKRLNTTIRQLGYPTKNALRGWYREYVQHLDLRTQPVARAPKYSEAQRQAALEHFRTHDRCISGTMRALGYPGRGTLTAWVREAFPEARTSMVGRSWHPGYSEEVRQAGVIGLCSGDESAQQVADRLGVSRPTLYSWKDQLLGHEASSSMKRRKANPKVPEREELERKLEALQRDVRQLQLEHDLLKKANELLKKGLGVDLLILSNREKTQLIDALKEVYRLPELLAQLRIARSSYFYHRARMCLADKYAAVRLSLAEIFEANRRCYGYRRLQASLARKSVIVSEKVVQRLMKQEHLAVARPRRRRFGSYLGEISPAPENLINRDFHADAPNVKWLTDITEFQIPAGKVYLSPIIDCFDGMVISWSIGTQPDAGLVNTMLDAAIGTVANGEERPIIHSDRGAHYRWPGWLTRISEARLVRSMSRKGCSQDNAACEGFFGRLKTELFYPRDWKAITIEQFVAEVDAYIRWYNEKRIKISLGSLSPVEYRQSLGLKLLEHHHHHH”, the protein production is reported as “not failed”. For “MYTCKNKERMLMYKTIIMPVDVFEMELSDKAIRHAEFLAQDDGVIHLLHVLPGSASLSLHRFAADVRRFEEHLQHEAEERLQTMVSHFTIDPSRIKQHVRFGSVRDEVNELAKELDADVVVIGSRNPSISTHLLGSNASSVIRHANLPVLVVR”, the protein production was “failed”. In the case of “MYTNVHSANNYQANLSNRSYGFKELAVLYFPNIAPASASIRLKQWIKDDVELLGSLEETNYHLSNRILTPKQRDLITTTFGSPFLEHHHHHH”, the protein production is reported as “failed”. With “MYVFIEPNDLKDYLITVYDERNRAIRKQTQVYCFYLMIVLFVALFFFFPCLTIRDLVSYKLPLIFAYLYLIIRSLVAKKMEALGKITTNSQKPPFDTSQVLC” the protein production was “failed”. In the case of “MYVTTGTNDILLTINDYVNKETASYQLTDISNNTLISEIIEKIKVLKNYTYSSTDLVLYFARVECKLSEKLSTYNKSNRKTIKLELYLSKLITINVRTLQSCGTGTSRCIPFWSFCFRQNIKIKIIDTCEVRVLKQKIYNLTDESTSIPVENIVLLYKGAPLNNFLTLKESELIDNCRIDYFVPLCYIYKKKKEESDEDEDENEEKLKEHTKSEDKKVDTQQNENVKSENVNNENVKNENVNNENVKNENVNNENVNNENVNIENVKNDNNDNAKKC”, the protein production is reported as “failed”. In the case of “MYYKQLDSLVFTDGESIAKARLASMTDMWFSSDLHLGHKFVASMRGFDDPDEHDEVILSNFENTIGPDDVLWILGDLSSGAHRAEERALGLIAERLGGVVKHLVPGNHDSCHPMYRHAYKRQRRFLEVFDSVQAFQRMKWDDEDVYLSHFPRPGQDHPGMESRFDDLRLRVPLLIHGHLHSQFPMTGPGQVDVGVEAWGLKPAPRELVQLKLWESLSEKILEHHHHHH”, the protein production is reported as “failed”.
